Source: US6730503B1 (Roche Vitamins Inc., priority 1996, dated 2004)

Assays:
[1] = Optimal pH, PMS-DCIP assay in buffers of various pH; format: biochemical
Procedure: The Enzymes A″ and B have a relatively wide pH range toward a lower pH, compared with the Enzymes A and A′.
The enzyme activity was assayed by the PMS-DCIP spectrophotometric assay using various pH buffers. The buffers were 50 mM Tris-malate-NaOH, pH 6.0, 6.5, 7.0, 7.5, 8.0 and 8.5; 50 mM glycine-NaOH, pH 9.0 and 9.5. The extinction coefficients of DCIP at pH 6.0, 6.5, 7.0, 7.5, 8.0, 8.5, 9.0 and 9.5 were taken as 10.8, 13.2, 14.5, 14.9, 15.0, 15.1, 15.1 and 15.1, respectively. […] The Enzymes A″ and B had relatively wide pH range toward lower pH, compared with the Enzymes A and A′.

[2] = Thermal stability, 5 minutes, residual activity by PMS-DCIP assay; format: physicochemical
Procedure: Table 4 indicates the results of thermal-stabilities of the enzymes. The enzyme (about 0.05 mg/ml) in 25 mM HEPES buffer, pH 7.5, containing 5% sucrose, 0.2 M NaCl, and 5 mM CaCl2 was incubated at temperature indicated in the table (4-60° C.) for 5 minutes, cooled in ice bath and assayed by PMS-DCIP spectrophotometric method. Remaining activity was expressed as relative activity against that obtained by 4° C. incubation.

[3] = Substrate specificity of purified enzymes, PMS-DCIP spectrophotometric assay; format: biochemical; conditions: A′ corrected 1.5-fold (purity about 65%)
Procedure: The enzymatic activity of the AADHs herein can be determined by methods known in the art, such as by photometric analysis using a spectrophotometer. In accordance with the present invention, one unit of enzyme activity was defined as the amount of enzyme which catalyzed the reduction of 1 μmole of DCIP per minute. The extinction coefficient of DCIP at pH 8.0 was taken as 15 mM^−1. In a preferred standard assay for determining the enzyme activity of the AADHs herein, a first cuvette includes a standard reaction mixture (1.0 ml) containing 0.1 mM DCIP, 1 mM PMS, 2 to 125 mM substrate, 50 mM Tris-malate-NaOH buffer (pH 8.0), and 10 μl of the enzyme solution. A second cuvette, i.e., a reference cuvette, contains all the above components except the substrate. The reference cuvette is used to standardize the background absorbance resulting from a substrate-independent (endogenous) reaction. Preferably, a double beam spectrophotometer is used to determine the activity of the enzyme in the presence of a substrate with respect to a standard reaction mixture in the absence of the substrate.
Enzyme activities of each clone (cell free extract, soluble fraction and membrane fraction) were measured by photometric analysis. The cells of each clone were inoculated in 5 ml of MB medium in a test tube and cultivated at 30° C. for 24 hours. The resulting broth was transferred into 200 ml of fresh MB medium in 500 ml flask and the flask was shaken on the rotary flask shaker at 30° C. for 24 hours. The cells were collected by centrifugation at 6,000×g for 10 minutes and washed with 40 ml of cold buffer consisting of 50 mM Tris-HCl, pH 7.5, 5 mM MgCl2 and 0.5 mM phenylmethylsulfonyl fluoride and suspended with the same buffer to prepare cell suspension of 1 g wet cells per 5 ml. The cell suspension was subjected twice to a French press cell disruptor (1,500 kg/cm^2) and the resulting homogenate was centrifuged at 6,000×g for 10 minutes to remove cell debris. Thus obtained cell free extract (CFE) was centrifuged at 100,000×g for 60 minutes. The resulting supernatant and pellet were collected as the cytosol fraction and the membrane fraction, respectively and subjected to PMS-DCIP assay as follows. The enzyme reaction mixture (1.0 ml) contained 100 μM DCIP, 1 mM PMS, 50 mM Tris malate-NaOH buffer, pH 8.0, a substrate and the enzyme (10 μl). Substrate-dependent decreasing rate of absorbance of DCIP at 600 nm was measured at 25° C. by using a Kontron spectrophotometer UVIKON 810. […] In the A-group, there were three types, A, A′ and A″ each of which was distinguished from each other by their physical map of the DNA carried on each plasmid. B- or C-group each consisted of only one type of protein derived from one region of the chromosomal DNA.

[4] = Oxidation product of AADH clones by resting cell reaction followed by TLC analysis; format: cell-based, P. putida
Text: Enzyme A gene was originally cloned as a cosmid clone of p24D4 which has about 25 kb insert in EcoRI site of pVK100. Then, it was further subcloned to use as an Enzyme A gene cassette. The 2.7 kb EcoRV fragment which includes ORF of Enzyme A gene with about 500 bp of non-coding regions at the both ends was excised from 3.4 kb NruI fragment, which was isolated from p24D4 in M13 mp18, and was ligated to HindIII site of pUC18 with HindIII linker ([…]). The resulting plasmid was designated pSSA202. Enzyme A gene cassette (2.7 kb HindIII fragment) was then inserted at HindIII site of pVK102 to produce pSSA102R. The plasmid pSSA102R was introduced into nalidixic acid resistant P. putida [ATCC 21812] by a conjugal mating method as described in Example 1-(1). The transconjugant of P. putida carrying pSSA102R was selected on MB agar medium containing 50 μg/ml nalidixic acid and 10 μg/ml tetracycline (MNT agar medium) and subjected to a mini-resting cell reaction. […] The reaction mixture was assayed with TLC and 2KGA was identified as the product, while no 2KGA was observed by the same resting cell reaction with the host, nalidixic acid resistant P. putida [ATCC 21812].

[5] = Products of enzyme reactions with purified enzymes, identified by TLC and/or HPLC; format: biochemical
Procedure: Products formed from a substrate in the reaction with Enzyme A, Enzyme A′, Enzyme A″ or Enzyme B were analyzed by thin layer chromatography (TLC) and/or high performance liquid chromatography (HPLC) with authentic compounds. […] Similarly to the reactivity for L-sorbosone, D-glucosone can be converted to 2KD by all of above mentioned AADHs. A group enzymes can produce 2KD from D-fructose whose possible direct product is D-glucosone. […]
Enzyme reactions with purified Enzyme A or Enzyme B and various substrates were performed as described in Example 11.

[6] = 4° C. for 5 minutes (reference)
[7] = 20° C. for 5 minutes, relative to 4° C. incubation
[8] = 30° C. for 5 minutes, relative to 4° C. incubation
[9] = 40° C. for 5 minutes, relative to 4° C. incubation
[10] = 50° C. for 5 minutes, relative to 4° C. incubation
[11] = 60° C. for 5 minutes, relative to 4° C. incubation

Row | Molecule | Relative activity (optimal pH) ([1]; assay pH 6.0, pH 8.0 = 100) [%] | Relative activity (optimal pH) ([1]; assay pH 6.5, pH 8.0 = 100) [%] | Relative activity (optimal pH) ([1]; assay pH 7.0, pH 8.0 = 100) [%] | Relative activity (optimal pH) ([1]; assay pH 7.5, pH 8.0 = 100) [%] | Relative activity (optimal pH) ([1]; assay pH 8.0) [%] | Relative activity (optimal pH) ([1]; assay pH 8.5, pH 8.0 = 100) [%] | Relative activity (optimal pH) ([1]; assay pH 9.0, pH 8.0 = 100) [%] | Relative activity (optimal pH) ([1]; assay pH 9.5, pH 8.0 = 100) [%] | Relative activity (thermal stability) [2, 6] [%] | Relative activity (thermal stability) [2, 7] [%] | Relative activity (thermal stability) [2, 8] [%] | Relative activity (thermal stability) [2, 9] [%] | Relative activity (thermal stability) [2, 10] [%] | Relative activity (thermal stability) [2, 11] [%] | Substrate specificity ([3]; 2 mM L-Sorbosone) | Substrate specificity ([3]; 50 mM D-Glucose) | Substrate specificity ([3]; 50 mM D-Mannitol) | Substrate specificity ([3]; 50 mM Isopropanol) | Substrate specificity ([3]; 50 mM n-Propanol) | Substrate specificity ([3]; 125 mM D-Fructose) | also measured
1 | Enzyme A′: recombinant AADH of G. oxydans DSM No. 4025, amino acid sequence SEQ ID NO 6, plasmid p1E2 (protein, Gluconobacter oxydans; SIGNAL (1)..(23)) MKTSSLLVASVAALASYSSFALAQVTPVTDELLANPPAGEWISYGQNQENYRHSPLTQITTENVGQLQLVWARGMQPGKVQVTPLIHDGVMYLANPGDVIQAIDAKTGDLIWEHRRQLPNIATLNSFGEPTRGMALYGTNVYFVSWDNHLVALDTATGQVTFDVDRGQGEDMVSNSSGPIVANGVIVAGSTCQYSPFGCFVSGHDSATGEELWRNYFIPRAGEEGDETWGNDYEARWMTGVWGQITYDPVGGLVHYGSSAVGPASETQRGTTGGTMYGTNTRFAVRPETGEIVWRHQTLPRDNWDQECTFEMMVANVDVQPAADMDGVRSINPNAATGERRVLTGVPCKTGTMWQFDAETGEFLWARDTSYENIIESIDENGIVTVDESKVLTELDTPYDVCPLLLGGRDWPSAALNPDTGIYFIPLNNTCMDIEAVDQEFSSLDVYNQSLTAKMAPGKELVGRIDAIDISTGRTLWTAEREASNYAPVLSTAGGVLFNGGTDRYFRALSQETGETLWQTRLATVASGQAVSYEIDGVQYIAIGGGGTTYGSFHNRPLAEPVDSTAIGNAMYVFALPQQ | 2.1 | 9.3 | 22.5 | 46.8 | 100.0 | 142.7 | 2.1 | 1.8 | 100.0 | 100.8 | 103.6 | 78.9 | 0.6 | 0.0 | 5.0 units/mg of purified protein | 0.0 units/mg of purified protein | 1.3 units/mg of purified protein | 108.9 units/mg of purified protein | 180.7 units/mg of purified protein | 2.9 units/mg of purified protein | Substrate specificity ([3]; 125 mM D-Sorbitol): 7.8 units/mg of purified protein; Substrate specificity ([3]; 125 mM L-Sorbose): 1.6 units/mg of purified protein; Oxidation product of D-sorbitol [4]: mainly D-glucose; Oxidation product of L-sorbose [4]: *1Oxidation product of L-sorbose by Enzymes A, A′, A″, and [A and B] was 2KGA.; Oxidation product of L-sorbosone [4]: *4Oxidation product of L-sorbosone by Enzymes A, A′, A″, B, and [A and B] was 2KGA.; Product ([5]; substrate D-Fructose): 2-keto-D-gluconic acid; Product ([5]; substrate D-Mannitol): D-mannose; Product ([5]; substrate D-Sorbitol): D-glucose with L-gulose; Product ([5]; substrate L-Sorbose): L-sorbosone with 2KGA; Product ([5]; substrate L-Sorbosone): 2KGA
2 | Enzyme A: recombinant AADH of G. oxydans DSM No. 4025, amino acid sequence SEQ ID NO 5, plasmid p24D4/pSSA102R (protein, Gluconobacter oxydans; SIGNAL (1)..(23)) MKPTSLLWASAGALALLAAPAFAQVTPVTDELLANPPAGEWISYGQNQENYRHSPLTQITTENVGQLQLVWARGMQPGKVQVTPLIHDGVMYLANPGDVIQAIDAKTGDLIWEHRRQLPNIATLNSFGEPTRGMALYGTNVYFVSWDNHLVALDTATGQVTFDVDRGQGEDMVSNSSGPIVANGVIVAGSTCQYSPFGCFVSGHDSATGEELWRNYFIPRAGEEGDETWGNDYEARWMTGAWGQITYDPVTNLVHYGSTAVGPASETQRGTPGGTLYGTNTRFAVRPDTGEIVWRHQTLPRDNWDQECTFEMMVTNVDVQPSTEMEGLQSINPNAATGERRVLTGVPCKTGTMWQFDAETGEFLWARDTNYQNMIESIDENGIVTVNEDAILKELDVEYDVCPTFLGGRDWPSAALNPDSGIYFIPLNNVCYDMMAVDQEFTSMDVYNTSNVTKLPPGKDMIGRIDAIDISTGRTLWSVERAAANYSPVLSTGGGVLFNGGTDRYFRALSQETGETLWQTRLATVASGQAISYEVDGMQYVAIAGGGVSYGSGLNSALAGERVDSTAIGNAVYVFALPQ | 6.5 | 13.0 | 33.1 | 57.7 | 100.0 | 113.2 | 50.0 | 19.6 | 100.0 | 91.5 | 78.0 | 19.9 | 4.1 | 2.9 | 23.15 units/mg of purified protein | 2.4 units/mg of purified protein | 7.1 units/mg of purified protein | 76.8 units/mg of purified protein | 139.6 units/mg of purified protein | 30.7 units/mg of purified protein | Residual activity ([2]; 40° C. for 5 min): 20%; Substrate specificity ([3]; 125 mM D-Sorbitol): 14.0 units/mg of purified protein; Substrate specificity ([3]; 125 mM L-Sorbose): 47.4 units/mg of purified protein; Oxidation product of D-sorbitol [4]: mainly D-glucose; Oxidation product of L-sorbose [4]: *1Oxidation product of L-sorbose by Enzymes A, A′, A″, and [A and B] was 2KGA.; Oxidation product of L-sorbosone [4]: *4Oxidation product of L-sorbosone by Enzymes A, A′, A″, B, and [A and B] was 2KGA.; Product ([5]; substrate D-Mannitol): D-Mannose; Product ([5]; substrate D-Sorbitol): D-glucose with L-gulose; Product ([5]; substrate L-Sorbose): L-sorbosone with 2KGA; Product ([5]; substrate L-Sorbosone): 2KGA
